# Laboratory results taken from IntAct's records for PubMed 20558380.
# B1: Vang-like protein 2 (Homo sapiens), Q9ULK5 (parent)
# chain: MDTESQYSGYSYKSGHSRSSRKHRDRRDRHRSKSRDGGRGDKSVTIQAPGEPLLDNESTRGDERDDNWGETTTVVTGTSEHSISHDDLTRIAKDMEDSVPLDCSRHLGVAAGATLALLSFLTPLAFLLLPPLLWREELEPCGTACEGLFISVAFKLLILLLGSWALFFRRPKASLPRVFVLRALLMVLVFLLVVSYWLFYGVRILDARERSYQGVVQFAVSLVDALLFVHYLAVVLLELRQLQPQFTLKVVRSTDGASRFYNVGHLSIQRVAVWILEKYYHDFPVYNPALLNLPKSVLAKKVSGFKVYSLGEENSTNNSTGQSRAVIAAAARRRDNSHNEYYYEEAEHERRVRKRRARLVVAVEEAFTHIKRLQEEEQKNPREVMDPREAAQAIFASMARAMQKYLRTTKQQPYHTMESILQHLEFCITHDMTPKAFLERYLAAGPTIQYHKERWLAKQWTLVSEEPVTNGLKDGIVFLLKRQDFSLVVSTKKVPFFKLSEEFVDPKSHKFVMRLQSETSV
# partner: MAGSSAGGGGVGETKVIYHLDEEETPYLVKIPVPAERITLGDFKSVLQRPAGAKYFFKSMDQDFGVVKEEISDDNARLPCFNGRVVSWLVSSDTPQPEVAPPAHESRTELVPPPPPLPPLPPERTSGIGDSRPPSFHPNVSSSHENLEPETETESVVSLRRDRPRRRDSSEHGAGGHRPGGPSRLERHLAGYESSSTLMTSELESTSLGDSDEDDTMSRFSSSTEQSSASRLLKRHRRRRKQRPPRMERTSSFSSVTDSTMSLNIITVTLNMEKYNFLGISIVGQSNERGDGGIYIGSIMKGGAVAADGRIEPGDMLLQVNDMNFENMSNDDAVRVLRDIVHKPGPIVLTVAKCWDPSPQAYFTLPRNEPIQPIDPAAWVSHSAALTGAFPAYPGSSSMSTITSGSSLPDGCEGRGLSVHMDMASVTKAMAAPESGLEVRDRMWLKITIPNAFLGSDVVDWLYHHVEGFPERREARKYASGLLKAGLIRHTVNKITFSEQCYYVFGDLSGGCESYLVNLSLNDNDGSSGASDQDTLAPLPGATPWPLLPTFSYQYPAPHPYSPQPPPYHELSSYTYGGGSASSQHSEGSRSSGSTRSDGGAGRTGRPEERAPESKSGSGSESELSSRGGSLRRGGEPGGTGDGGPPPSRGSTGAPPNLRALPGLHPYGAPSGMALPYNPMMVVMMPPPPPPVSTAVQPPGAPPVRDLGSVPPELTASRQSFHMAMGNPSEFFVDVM
# B2: Vang-like protein 2 (Homo sapiens), Q9ULK5 (parent)
# chain: B1 chain
# partner: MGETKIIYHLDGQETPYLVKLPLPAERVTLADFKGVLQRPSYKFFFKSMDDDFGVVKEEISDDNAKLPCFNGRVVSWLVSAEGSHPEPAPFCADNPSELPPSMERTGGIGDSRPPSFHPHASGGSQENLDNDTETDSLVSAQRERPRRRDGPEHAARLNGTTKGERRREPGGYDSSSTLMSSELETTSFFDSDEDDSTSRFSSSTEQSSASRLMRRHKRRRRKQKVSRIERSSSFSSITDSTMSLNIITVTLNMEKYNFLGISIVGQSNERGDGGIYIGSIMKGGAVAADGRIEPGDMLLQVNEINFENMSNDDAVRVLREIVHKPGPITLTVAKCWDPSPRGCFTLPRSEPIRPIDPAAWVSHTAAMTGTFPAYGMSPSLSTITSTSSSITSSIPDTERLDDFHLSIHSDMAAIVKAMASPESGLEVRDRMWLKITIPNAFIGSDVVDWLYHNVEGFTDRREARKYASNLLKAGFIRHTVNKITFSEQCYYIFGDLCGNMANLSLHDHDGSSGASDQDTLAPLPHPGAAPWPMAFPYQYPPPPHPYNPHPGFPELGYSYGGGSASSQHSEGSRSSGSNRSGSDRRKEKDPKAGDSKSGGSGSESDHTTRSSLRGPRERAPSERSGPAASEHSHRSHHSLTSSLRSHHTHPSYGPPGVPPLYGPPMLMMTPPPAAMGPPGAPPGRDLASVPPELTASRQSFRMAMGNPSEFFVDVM
# Variants of: B1
# Settings: with dvl2_mouse Dvl2, Q60838
row,effect of a mutation on the interaction,Variant
1,disrupting interaction,MDTESQYSGYSYKSGHSRSSRKHRDRRDRHRSKSRDGGRGDKSVTIQAPGEPLLDNESTRGDERDDNWGETTTVVTGTSEHSISHDDLTRIAKDMEDSVPLDCSRHLGVAAGATLALLSFLTPLAFLLLPPLLWREELEPCGTACEGLFISVAFKLLILLLGSWALFFRRPKASLPRVFVLRALLMVLVFLLVVSYWLFYGVRILDARERSYQGVVQFAVSLVDALLFVHYLAVVLLELRQLQPQFTLKVVRSTDGASRFYNVGHLSIQRVAVWILEKYYHDFPVYNPALLNLPKSVLAKKVSGFKVYSLGEENSTNNSTGQSRAVIAAAARRRDNSHNEYYYEEAEHERRVRKRRARLVVAVEEAFTHIKRLQEEEQKNPREVMDPREAAQAIFASMARAMQKYLRTTKQQPYHTMESILQHLEFCITHDMTPKASLERYLAAGPTIQYHKERWLAKQWTLVSEEPVTNGLKDGIVFLLKRQDFSLVVSTKKVPFFKLSEEFVDPKSHKFVMRLQSETSV [F437S]
2,disrupting interaction,MDTESQYSGYSYKSGHSRSSRKHRDRRDRHRSKSRDGGRGDKSVTIQAPGEPLLDNESTRGDERDDNWGETTTVVTGTSEHSISHDDLTRIAKDMEDSVPLDCSRHLGVAAGATLALLSFLTPLAFLLLPPLLWREELEPCGTACEGLFISVAFKLLILLLGSWALFFRRPKASLPRVFVLRALLMVLVFLLVVSYWLFYGVRILDARERSYQGVVQFAVSLVDALLFVHYLAVVLLELRQLQPQFTLKVVRSTDGASRFYNVGHLSIQRVAVWILEKYYHDFPVYNPALLNLPKSVLAKKVSGFKVYSLGEENSTNNSTGQSRAVIAAAARRRDNSHNEYYYEEAEHERRVRKRRARLVVAVEEAFTHIKRLQEEEQKNPREVMDPREAAQAIFASMARAMQKYLRTTKQQPYHTMESILQHLEFCITHDMTPKAFLERYLAAGPTIQYHKERWLAKQWTLVNEEPVTNGLKDGIVFLLKRQDFSLVVSTKKVPFFKLSEEFVDPKSHKFVMRLQSETSV [S464N]

# Variants of: B2
# Settings: with dvl3_mouse Dvl3, Q61062
row,Variant,effect of a mutation on the interaction
1,MDTESQYSGYSYKSGHSRSSRKHRDRRDRHRSKSRDGGRGDKSVTIQAPGEPLLDNESTRGDERDDNWGETTTVVTGTSEHSISHDDLTRIAKDMEDSVPLDCSRHLGVAAGATLALLSFLTPLAFLLLPPLLWREELEPCGTACEGLFISVAFKLLILLLGSWALFFRRPKASLPRVFVLRALLMVLVFLLVVSYWLFYGVRILDARERSYQGVVQFAVSLVDALLFVHYLAVVLLELRQLQPQFTLKVVRSTDGASRFYNVGHLSIQRVAVWILEKYYHDFPVYNPALLNLPKSVLAKKVSGFKVYSLGEENSTNNSTGQSRAVIAAAARRRDNSHNEYYYEEAEHERRVRKRRARLVVAVEEAFTHIKRLQEEEQKNPREVMDPREAAQAIFASMARAMQKYLRTTKQQPYHTMESILQHLEFCITHDMTPKASLERYLAAGPTIQYHKERWLAKQWTLVSEEPVTNGLKDGIVFLLKRQDFSLVVSTKKVPFFKLSEEFVDPKSHKFVMRLQSETSV [F437S],disrupting interaction
2,MDTESQYSGYSYKSGHSRSSRKHRDRRDRHRSKSRDGGRGDKSVTIQAPGEPLLDNESTRGDERDDNWGETTTVVTGTSEHSISHDDLTRIAKDMEDSVPLDCSRHLGVAAGATLALLSFLTPLAFLLLPPLLWREELEPCGTACEGLFISVAFKLLILLLGSWALFFRRPKASLPRVFVLRALLMVLVFLLVVSYWLFYGVRILDARERSYQGVVQFAVSLVDALLFVHYLAVVLLELRQLQPQFTLKVVRSTDGASRFYNVGHLSIQRVAVWILEKYYHDFPVYNPALLNLPKSVLAKKVSGFKVYSLGEENSTNNSTGQSRAVIAAAARRRDNSHNEYYYEEAEHERRVRKRRARLVVAVEEAFTHIKRLQEEEQKNPREVMDPREAAQAIFASMARAMQKYLRTTKQQPYHTMESILQHLEFCITHDMTPKAFLERYLAAGPTIQYHKERWLAKQWTLVNEEPVTNGLKDGIVFLLKRQDFSLVVSTKKVPFFKLSEEFVDPKSHKFVMRLQSETSV [S464N],disrupting interaction

# Results, then the variant that gave them:
row,effect of a mutation on the interaction,Variant
1,disrupting interaction,MDTESQYSGYSYKSGHSRSSRKHRDRRDRHRSKSRDGGRGDKSVTIQAPGEPLLDNESTRGDERDDNWGETTTVVTGTSEHSISHDDLTRIAKDMEDSVPLDCSRHLGVAAGATLALLSFLTPLAFLLLPPLLWREELEPCGTACEGLFISVAFKLLILLLGSWALFFRRPKASLPRVFVLRALLMVLVFLLVVSYWLFYGVRILDARERSYQGVVQFAVSLVDALLFVHYLAVVLLELRQLQPQFTLKVVRSTEGASRFYNVGHLSIQRVAVWILEKYYHDFPVYNPALLNLPKSVLAKKVSGFKVYSLGEENSTNNSTGQSRAVIAAAARRRDNSHNEYYYEEAEHERRVRKRRARLVVAVEEAFTHIKRLQEEEQKNPREVMDPREAAQAIFASMARAMQKYLRTTKQQPYHTMESILQHLEFCITHDMTPKAFLERYLAAGPTIQYHKERWLAKQWTLVSEEPVTNGLKDGIVFLLKRQDFSLVVSTKKVPFFKLSEEFVDPKSHKFVMRLQSETSV [D255E]
2,decreasing interaction,MDTESQYSGYSYKSGHSRSSRKHRDRRDRHRSKSRDGGRGDKSVTIQAPGEPLLDNESTRGDERDDNWGETTTVVTGTSEHSISHDDLTRIAKDMEDSVPLDCSRHLGVAAGATLALLSFLTPLAFLLLPPLLWREELEPCGTACEGLFISVAFKLLILLLGSWALFFRRPKASLPRVFVLRALLMVLVFLLVVSYWLFYGVRILDARERSYQGVVQFAVSLVDALLFVHYLAVVLLELRQLQPQFTLKVVRSTDGASRFYNVGHLSIQRVAVWILEKYYHDFPVYNPALLNLPKSVLAKKVSGFKVYSLGEENSTNNSTGQSRAVIAAAARRRDNSHNEYYYEEAEHERRVCKRRARLVVAVEEAFTHIKRLQEEEQKNPREVMDPREAAQAIFASMARAMQKYLRTTKQQPYHTMESILQHLEFCITHDMTPKAFLERYLAAGPTIQYHKERWLAKQWTLVSEEPVTNGLKDGIVFLLKRQDFSLVVSTKKVPFFKLSEEFVDPKSHKFVMRLQSETSV [R353C]
